US4016250A, “Method for testing for pregnancy” (Cornell Research Foundation, Inc., priority 1974, dated 1977)

Experiments:
[1] = biological target: T1, receptor for HCG in plasma membranes from bovine corpora lutea (Bos taurus, UniProt Q28005); assay: Radioreceptorassay of HCG: competition with 125I-HCG for plasma membrane receptor; format: binding
T1 construct: 100 g. of tissue from approximately 25 large corpora lutea; from tissue; host or cells: bovine corpora lutea of early pregnancy (slaughterhouse), plasma membrane fraction from zonal sucrose gradient
Procedure: All procedures in the preparation of plasma membranes were carried out in an ice bath or at 4° C. Fresh bovine ovaries from early pregnancy (first trimester: fetus length from crown to rump up to 22 cm.) were obtained from the slaughter house and stored in liquid nitrogen until processed. In a typical experiment, 100 g. of tissue from approximately 25 large corpora lutea were cut into small pieces with a sharp steel blade and ground in 500 ml. of 10 mM. Tris-HCl buffer of pH. 7.8 containing one mM. of MgCl2, one MM. dithiothreitol, 10,000I.U. of Trasylol (FBA Pharmaceuticals) per liter and 0.25 M. sucrose. The homogenate was filtered through two layers of cheese cloth and the larger particles were reprocessed in 500 ml. of the buffer. […] The homogenate was centifuged at 650 xg. for 20 minutes in a Sorvall refrigerated centrifuge (RC B, Rotor GSA) to remove intact cells, cell debris and nuclei. The 650 × g. supernatant was again centrifuged at 13,000 g. for 20 minutes in the same centrifuge. […]
In Table I, the incubation was performed for 30 minutes at 37° C. in a Dunaboff water bath shaker. […] The supernates were aspirated and the pellets were counted in a Packard Autogamma counter with a 51% efficiency for I^125. The standard curves and the hormonal concentration in the plasma samples were calculated by a time sharing IBM computer using logit-log transformations.

[2] = biological target: T2, PRL receptor sites in ovarian homogenates (Bos taurus, UniProt Q28172); assay: Specificity of 125I-hPRL binding: displacement by unlabeled hormones; set-up: species or system bovine
T2 construct: from tissue; host or cells: ovarian homogenate (bovine, from the preparation section)
T2 sequence (Q28172 25-581): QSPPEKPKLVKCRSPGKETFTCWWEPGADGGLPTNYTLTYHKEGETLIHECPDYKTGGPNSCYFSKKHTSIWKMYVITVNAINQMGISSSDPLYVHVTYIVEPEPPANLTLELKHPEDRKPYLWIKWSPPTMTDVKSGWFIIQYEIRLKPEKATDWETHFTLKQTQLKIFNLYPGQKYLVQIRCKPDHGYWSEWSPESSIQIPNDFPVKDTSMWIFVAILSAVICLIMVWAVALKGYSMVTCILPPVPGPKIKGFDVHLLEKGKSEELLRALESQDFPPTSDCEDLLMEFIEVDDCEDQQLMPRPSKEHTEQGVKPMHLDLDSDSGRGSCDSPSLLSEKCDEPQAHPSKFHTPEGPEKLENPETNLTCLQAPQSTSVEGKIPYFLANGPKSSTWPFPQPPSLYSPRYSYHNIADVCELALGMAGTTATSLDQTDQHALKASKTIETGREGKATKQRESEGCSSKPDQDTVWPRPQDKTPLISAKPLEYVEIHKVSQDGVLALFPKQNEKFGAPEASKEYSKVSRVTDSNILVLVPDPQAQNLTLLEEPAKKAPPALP
Procedure: A reaction mixture containing 100 ul of incubation buffer containing 10 IU Trasylol (FBA Pharmaceuticals, New York, New York), 50 ul of receptor preparation equivalent to 1-300 ug of protein and 100 ul of ^125 I-hPRL (SA; 50-70 uCi/ug) were incubated at 37° C. for 2 hours in the absence and in the presence of 1 ug of unlabeled bovine PRL. At the end of incubation, 1 ml of ice cold buffer was added to all tubes and tubes were centrifuged at 5,000 rpm for 20 minutes. The supernatants were aspirated. The pellets containing receptor bound hormones were counted in an Automamma counter with a 51% efficiency for ^125 I (Packard Instrument Company, Downers Grove, Illinois). Specific binding was calculated as the difference of binding in the tubes with and without unlabeled PRL.

T1 sequence (Q28005 27-701): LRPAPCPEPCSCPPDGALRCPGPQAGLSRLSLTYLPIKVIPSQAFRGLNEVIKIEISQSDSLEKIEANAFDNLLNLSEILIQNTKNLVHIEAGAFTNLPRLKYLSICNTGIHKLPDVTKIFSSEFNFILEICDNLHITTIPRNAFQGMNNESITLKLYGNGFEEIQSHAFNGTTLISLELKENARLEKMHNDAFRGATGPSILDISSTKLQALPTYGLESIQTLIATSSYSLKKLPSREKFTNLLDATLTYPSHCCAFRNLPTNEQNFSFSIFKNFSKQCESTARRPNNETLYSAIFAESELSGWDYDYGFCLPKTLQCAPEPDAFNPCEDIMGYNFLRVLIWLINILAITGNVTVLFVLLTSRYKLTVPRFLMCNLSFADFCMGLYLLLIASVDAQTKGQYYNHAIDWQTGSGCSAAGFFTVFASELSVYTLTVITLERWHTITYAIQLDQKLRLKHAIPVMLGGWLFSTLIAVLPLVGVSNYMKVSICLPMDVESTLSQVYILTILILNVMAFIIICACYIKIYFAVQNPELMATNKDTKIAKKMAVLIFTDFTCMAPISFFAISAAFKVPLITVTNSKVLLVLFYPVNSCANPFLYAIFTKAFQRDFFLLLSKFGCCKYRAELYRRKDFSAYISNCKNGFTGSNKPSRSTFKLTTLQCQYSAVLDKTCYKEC

logit-log line of radioreceptorassay response compared with HCG ([1]; same system, different concentrations)	cross-reaction in the radioreceptorassay of HCG (FIG. 2) ([1]; FIG. 2 legends: TSH, HGH, PRL are plasma from hypothyroid, acromegalic, postpartum lactation subjects)	potency in displacing receptor-bound 125I-hPRL relative to hPRL [2]	displacement of 125I-hPRL bound to receptor protein ([2]; various concentrations)	Substance
parallel to the line for HCG	–	–	–	LH from rat: sample of luteinizing hormone from rat
–	no cross-reaction	0.5-1 % of hPRL	capable of displacing	human growth hormone [hGH]
